# In publication PMC10250241 (Nucleic Acids Research, 2023):
# B1: mms22N-3D (S126, T127, S131D) (domain or fragment, S. cerevisiae, UniProt Q06164 1-300, looked up)
# chain: MDVDEPNPIVISDSEATDEEISIIYEPEFNENYLWAEENVQEASRSQKIVTERLSLDSTAGESCTPSVVTDTQVTTGLRWSLRKRKAIQKMPYSLERIKHRQLLEGYDISSFDSISNQLTLPKNADDVIHDNDILLTKRTGKPLDEQKDVTIDSIKPENSSVQSQRYDSDEEIPKKRHRTFKDLDQDIVFQSGDSTEDEQDLASTNLQNTQNDEVIFRGRVLNVRTGYRGVLPRVAWEKSLQKQQSSKVTKRKTQLLNHKGVAKRKMNRSAHIEDEEQNLLNDLIAPDDELDIEENAPPD
# B2: His6-Eco1 (enzyme, S. cerevisiae, UniProt P43605 1-281, looked up)
# chain: MKARKSQRKAGSKPNLIQSKLQVNNGSKSNKIVKCDKCEMSYSSTSIEDRAIHEKYHTLQLHGRKWSPNWGSIVYTERNHSRTVHLSRSTGTITPLNSSPLKKSSPSITHQEEKIVYVRPDKSNGEVRAMTEIMTLVNNELNAPHDENVIWNSTTEEKGKAFVYIRNDRAVGIIIIENLYGGNGKTSSRGRWMVYDSRRLVQNVYPDFKIGISRIWVCRTARKLGIATKLIDVARENIVYGEVIPRYQVAWSQPTDSGGKLASKYNGIMHKSGKLLLPVYI
# Experiments:
# [1] = target: the molecule itself; assay: SEC
# [2] = target: B1; assay: SEC
binding result [2],Binder,stoichiometry N [1]
–,B1,2
binds,B2,–
